± gives the standard deviation of the averaged measurements.
Test system: Saccharomyces cerevisiae
Test: protein stability index of tFT-peptide fusion (C-terminal peptide) (PSI (0-1 scale)); higher = more stable (slower turnover)
Settings: genetic background: wild type; temperature: 30 C
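Also: PSI is a weighted mean of sequencing reads over stability bins, variants kept only with over 10 reads, mCherry proximal and sfGFP distal, peptide attached via GGGS linker.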

PACPPTSDFPSL and PAFRSDKQQSQE are within error of each other in protein stability index: 0.623 ± 0.073 for the first, 0.703 ± 0.074 for the second.

Compared with PAGVDQPYIPGE, PAHSTEVVPRVL is higher in protein stability index: 0.6002 ± 0.0054 for the first, 0.717 ± 0.018 for the second.

Compared with PALAPLRPLPPV, PALCGGFFLVGV is lower in protein stability index: 0.669 ± 0.0073 for the first, 0.636 ± 0.019 for the second.

Compared with PALGLELYFVLV, PALLRLGTGAVG is higher in protein stability index: 0.519 ± 0.012 for the first, 0.711 ± 0.047 for the second.

PALPFAPPPLPP and PALPPASPRPAL are within error of each other in protein stability index: 0.685 ± 0.02 for the first, 0.776 ± 0.072 for the second.

Compared with PALPPPGSPPPS, PANRGPPTPFSP is higher in protein stability index: 0.616 ± 0.01 for the first, 0.729 ± 0.024 for the second.

PAPAPPPSPLPP and PAPGLTPAGRAP are within error of each other in protein stability index: 0.655 ± 0.028 for the first, 0.777 ± 0.14 for the second.

PAPPFPIRPPAA and PAPPPLPSAAPP are within error of each other in protein stability index: 0.653 ± 0.015 for the first, 0.706 ± 0.14 for the second.

PAPPPPARPALP and PAPPPPFPPSPP are within error of each other in protein stability index: 0.706 ± 0.027 for the first, 0.695 ± 0.039 for the second.

First: PAPPPVRPRSLP
Second: PAPRWFSHPSYP
The protein stability index of the first is lower: 0.627 ± 0.021 for the first, 0.676 ± 0.01 for the second.

PAPSASPPLLRC and PAPSPLPPPPSL are within error of each other in protein stability index: 0.722 ± 0.03 for the first, 0.6978 ± 0.0057 for the second.

PASCARVFVGMS and PASDPPHRDPPH are within error of each other in protein stability index: 0.67 ± 0.037 for the first, 0.658 ± 0.019 for the second.

Going from PCASGSPRFCQR to PCLSFPPALRAA, the protein stability index falls from 0.707 ± 0.025 to 0.641 ± 0.012.

PCPIGGRPCRVG and PCPPNSPPLSPT are within error of each other in protein stability index: 0.7275 ± 0.0037 for the first, 0.71 ± 0.043 for the second.

PCPPPRSPPLAP and PCRLTRSPRTLP are within error of each other in protein stability index: 0.74539 ± 0.00027 for the first, 0.689 ± 0.1 for the second.

Compared with PCSLPLVLSFPH, PCSPLSLPPPFP is higher in protein stability index: 0.6846 ± 0.0037 for the first, 0.722 ± 0.0073 for the second.

First: PCSVPHSGSAPA
Second: PDEFIAKRWNST
The protein stability index of the first is higher: 0.712 ± 0.044 for the first, 0.62 ± 0.012 for the second.

Going from PDVNEATPKLWC to PDYPLSCLLFFP, the protein stability index falls from 0.694 ± 0.027 to 0.643 ± 0.011.

PELCLSSPSSLS and PESAWLSPRCVF are within error of each other in protein stability index: 0.686 ± 0.018 for the first, 0.6696 ± 0.0039 for the second.

First: PFAFLSPLIPPP
Second: PFFFLWSLYFFL
The protein stability index of the first is higher: 0.749 ± 0.013 for the first, 0.5096 ± 0.0038 for the second.

PFFSFGGLRFLL and PFGSYIRHRENT are within error of each other in protein stability index: 0.6621 ± 0.0053 for the first, 0.759 ± 0.14 for the second.

PFHSLSATFPPR and PFLFPLLSPFSV are within error of each other in protein stability index: 0.768 ± 0.086 for the first, 0.681 ± 0.019 for the second.

PFLHPTRLARSN and PFLSPPPPSTPP are within error of each other in protein stability index: 0.712 ± 0.011 for the first, 0.704 ± 0.01 for the second.

Going from PFPHLYTPRLLF to PFPLPPLCPPAA, the protein stability index rises from 0.571 ± 0.014 to 0.722 ± 0.064.

PFPPLRSLPRPP and PFPPPPPPPMPT are within error of each other in protein stability index: 0.737 ± 0.099 for the first, 0.691 ± 0.05 for the second.

First: PFPPPSPPPPSS
Second: PFPPRLPSPATP
The protein stability index of the first is lower: 0.6785 ± 0.003 for the first, 0.6914 ± 0.0037 for the second.

Compared with PFPPSLPSLPLL, PFPPYSLPLPSP is higher in protein stability index: 0.698 ± 0.017 for the first, 0.759 ± 0.016 for the second.

Compared with PFPSPSRHSLFP, PFRFLFGISLFF is lower in protein stability index: 0.723 ± 0.084 for the first, 0.559 ± 0.015 for the second.

PFRLSPPLPPAP and PFRSPYQRPLHY are within error of each other in protein stability index: 0.743 ± 0.084 for the first, 0.689 ± 0.039 for the second.

First: PFSIPPPPPRYP
Second: PFSPDVSSVVFL
The protein stability index of the first is higher: 0.766 ± 0.0092 for the first, 0.667 ± 0.032 for the second.

First: PFSPPLTPTFFP
Second: PFSPPPGPPPPP
The protein stability index of the first is higher: 0.7052 ± 0.0057 for the first, 0.6806 ± 0.0034 for the second.

PFTSPAGSFPPP and PFWTPASPPSFY are within error of each other in protein stability index: 0.762 ± 0.068 for the first, 0.748 ± 0.014 for the second.

PGAFDLPHSQAV and PGCSCPSTRRTT are within error of each other in protein stability index: 0.552 ± 0.059 for the first, 0.655 ± 0.077 for the second.

PGGCQDPWAALC and PGHPGSCPRRNG are within error of each other in protein stability index: 0.714 ± 0.077 for the first, 0.645 ± 0.046 for the second.

PGPDMSSVSSDY and PGPLISAVPLPF are within error of each other in protein stability index: 0.6 ± 0.11 for the first, 0.733 ± 0.064 for the second.

PGPNPASCIPTW and PGPWLGLTPCRT are within error of each other in protein stability index: 0.6835 ± 0.0021 for the first, 0.813 ± 0.14 for the second.

PGRAARLLPRPL and PGRLTTERLSFQ are within error of each other in protein stability index: 0.712 ± 0.048 for the first, 0.7 ± 0.043 for the second.

PGRMEKKALKRP and PGRQSPPAPLYR are within error of each other in protein stability index: 0.677 ± 0.014 for the first, 0.678 ± 0.0098 for the second.

PGVRGVKPVGVS and PGVRPPSLVPPL are within error of each other in protein stability index: 0.675 ± 0.092 for the first, 0.65 ± 0.11 for the second.

Compared with PHALSSFLSLFL, PHAPHPPHPAPC is lower in protein stability index: 0.791 ± 0.017 for the first, 0.653 ± 0.01 for the second.

PHARHPPDHRPF gave a protein stability index of 0.678 ± 0.059.

Source: the supplement of paper PMC10724198
